B1: HDV Ribozyme (parent)
chain: GGCCGGCAUGGUCCCAGCCUCCUCGCUGGCGCCGGCUGGGCAACAUUCCGAGGGGACCGUCCCCUCGGUAAUGGCGAAUGGGACCCA

Variants of: B1
Assay: self-cleavage, relative activity (ratio to wild type); higher = more cleavage; co-transcriptional

Row | Variant | self-cleavage
1 | GGCCGGCAUGGUCCCAGCCUCCUCGCUGGCGCCGGCUGGGCAACAUUCCGAGGGGACCGUCCCCUCGGUAAUGGCAAACGGGACCCA [G76A U79C] | 0.964
2 | GGCCGGCAUGGUCCCAGCCUCCUCGCUGGCGCCGGCUGGGCAAUAUUCCGAGGGGACCGUCCUCUCGGUAAUGGCGAAUGGGACCCA [C44U C63U] | 0.806
3 | GGCCGGCACGGUCCCAGCCUCCUCGCUAGCGCCGGCUGGGCAACAUUCCGAGGGGACCGUCCCCUCGGUAAUGGCGAAUGGGACCCA [U9C G28A] | 0.101
4 | GGCCGGCAUGGUCCCAGCCUCCUCGCUGGCGCCGGCUGGGCAACAUUCCGAGGGGACCGUACCCUCGGUAAUGCCGAAUGGGACCCA [C61A G74C] | 0.315
5 | GGCCGGCAUGGUCCCAGCCUCCUCGCUGGCGCCGGCUGGGCAAAAUUCCGACGGGACCGUCCCCUCGGUAAUGGCGAAUGGGACCCA [C44A G52C] | 0.902
6 | GGCCGGUAUGGUCCCAGCCUCCUCGCUGGCGCCGGCUGGGGAACAUUCCGAGGGGACCGUCCCCUCGGUAAUGGCGAAUGGGACCCA [C7U C41G] | 0.225
7 | GGCCGGCAUGGUCCCAGCCUCCUCGCUGGCGCCGGCUGGGCAACAUUCUGAGGGGACCGUCCCCUCGGUAAUGGCGACUGGGACCCA [C49U A78C] | 0.188
8 | GGCCGGCAUGGUCCCAGCCUCCUCGCUGGCGCCGGCUGGGCAACAUUCCGAGGGGACCGUCCCCUCGGUAAUGGCCAACGGGACCCA [G76C U79C] | 0.643
9 | GGCCGGCAUGGUCCCAGCCUCCUCGCUGGCCCCGGCUGGGCAACAUUCCGAGGGGGCCGUCCCCUCGGUAAUGGCGAAUGGGACCCA [G31C A56G] | 0.166
10 | GGCCGGCAUGGUCCCAGACUCCUCGCUGGGGCCGGCUGGGCAACAUUCCGAGGGGACCGUCCCCUCGGUAAUGGCGAAUGGGACCCA [C18A C30G] | 0.0573
11 | GGCCGGCAUGGUCCCAGCCUCCUCGCUGGCGCCGGCUGGGCAACGUUCCGAGGGGACAGUCCCCUCGGUAAUGGCGAAUGGGACCCA [A45G C58A] | 1.18
12 | GACCGGCAUGGUCCCUGCCUCCUCGCUGGCGCCGGCUGGGCAACAUUCCGAGGGGACCGUCCCCUCGGUAAUGGCGAAUGGGACCCA [G2A A16U] | 0.0665
13 | GGCCGGCAUGGUCCCAGCCUCCUCGAUGGCGCCGGCUGGGCAACAUUCCGAGGGGACCGUCCGCUCGGUAAUGGCGAAUGGGACCCA [C26A C63G] | 0.853
14 | GGCCGGCAUGGUCCCAGCCUCCUCGCUGGCGCCGGCUGGGCAGCAUUCCGAGGGGACCGUCCCCUCGGUAAUGGUGAAUGGGACCCA [A43G C75U] | 0.0573
15 | GGCCGGCAGGGUCCCAGCCUCAUCGCUGGCGCCGGCUGGGCAACAUUCCGAGGGGACCGUCCCCUCGGUAAUGGCGAAUGGGACCCA [U9G C22A] | 0.314
16 | GGCCGGCAUGGUACCAGCCUCCUCGCUGGCGCCGGCUGGGCAACAUUCCGAAGGGACCGUCCCCUCGGUAAUGGCGAAUGGGACCCA [C13A G52A] | 0.229

Row | Variant | self-cleavage
17 | GGCCGGCAUGGUCUCAGCCUCCUCGCUGGCGCCGGCUGGGCAACAUUCCGAGGGGACAGUCCCCUCGGUAAUGGCGAAUGGGACCCA [C14U C58A] | 1.13
18 | GGCCGGCAUUGUCCCAGCCUCCUCGCUGGCGCCGGCUGGGCAACAUUCCGAGGGGACCGUCCCCUCGGUAAUGUCGAAUGGGACCCA [G10U G74U] | 0.0594
19 | GGCCCGCAUGGUCCCAGCCUCCUCGCUGGCGCCGGCUGGGCGACAUUCCGAGGGGACCGUCCCCUCGGUAAUGGCGAAUGGGACCCA [G5C A42G] | 0
20 | GGCCGGCAUGGUCCCAGCCUCCUCGCUGGCGCCGGCUGGGCAACAUUCCGAGGGGACCGUCCCAUCUGUAAUGGCGAAUGGGACCCA [C64A G67U] | 0.425
21 | GGCCGGCAUGGUCCCAGCCUCCUCGCUGGCGCCGGCUGUGCAACAUUCCGAGGGGACCGUCCCGUCGGUAAUGGCGAAUGGGACCCA [G39U C64G] | 0.845
22 | GGCCGCCCUGGUCCCAGCCUCCUCGCUGGCGCCGGCUGGGCAACAUUCCGAGGGGACCGUCCCCUCGGUAAUGGCGAAUGGGACCCA [G6C A8C] | 0
23 | GGCCGGCAUGGUCCCAGCCUCGUCGCUGGCGCCGGCUGUGCAACAUUCCGAGGGGACCGUCCCCUCGGUAAUGGCGAAUGGGACCCA [C22G G39U] | 0.102
24 | GGCCGGCAUGGUCACAGCCUCCUCGCUGGCGCCGGCUGGGCAACAUUCCGAGGGGACCGUCCCCCCGGUAAUGGCGAAUGGGACCCA [C14A U65C] | 0.864
25 | GGCCGGCAUGGUCCCAGCCUCCUCGCUGGCGCCGGCUGGGCAACAUUCCGAGGGGACCGUCCCCGCGCUAAUGGCGAAUGGGACCCA [U65G G68C] | 0.673
26 | GGCCGGCAUGGUCCCAGCCUCCUCGCUGGCGCCGGCUGUGCAACAUUCCGAGGGGACCGUCCCCUCGGUAAUGGCGCAUGGGACCCA [G39U A77C] | 0.233
27 | GGCCGGCAUGGUCCCAGCCUCCUCGCUGGCGCCGGCUGGGCAACAUUCCGAGGGGACCGUCCCCUCGGUACUGGCGAAUGGCACCCA [A71C G82C] | 0.268
28 | GGCCGGCAUGGUCCCAGCCUCCUCGCUGGCGCCGCCUGGGCAACAUUCCGAGGGGACCGUCCCAUCGGUAAUGGCGAAUGGGACCCA [G35C C64A] | 0.113
29 | GGCCGGCAUGGUCCCAGCCUCCUCGCUGGCGCCGGCUGGUCAACAUUCCGAGGGUACCGUCCCCUCGGUAAUGGCGAAUGGGACCCA [G40U G55U] | 0.621
30 | GGCCGGCAUGGUCCCAGCCUCCUCGCUGGCGCCGGCUGGGCAACAUUCGGAGGGGACCGUCCCCUCGGUAAUGGCGAACGGGACCCA [C49G U79C] | 0.631
31 | GGCCGGCAUGGUCCCAGCCUCCUCGCUCGCGCCGGCUGGGCAACAUUCCGAGGGGACCGUCCCCUCGGUAAAGGCGAAUGGGACCCA [G28C U72A] | 0.151
32 | GGCCGGCAUGGUCCCAGCCUCCUCGCUGGCGCCGGCUGAGCAACAUUCCGAGGGGACCGUCCCCUCGGUAACGGCGAAUGGGACCCA [G39A U72C] | 0.135
